Our source for the Kd values is article PMC5007448, “Molecular logic of the Zur-regulated zinc deprivation response in Bacillus subtilis”.

Some targets named below: Zur WT (BsZur) (Bacillus subtilis, UniProt P54479 1-145); Zur C84S (Bacillus subtilis, UniProt P54479 1-145, C84S); Zur H124A (Bacillus subtilis, UniProt P54479 1-145, H124A).
What all share (assay): EMSA; 0.1 uM ZnSO4; 20 mM Tris-HCl pH 6.4, 50 mM KCl, 1 mM DTT, 0.1 mg/ml BSA, 5% glycerol, 0.1 ug poly(dI-dC) in 20 ul, 0.1 uM ZnSO4; room temperature 20 min; gel at 4 C in TA pH
What all share (details): protein: recombinant; tags: none stated; chain copies: 2; label: 5'-32P; blunt
On the technique in general: In EMSA bound probe runs differently from free probe, usually more slowly.

B1: PzinT (dsDNA)
DNA 1: ATGTATGTATAATAAATCGTAATGTTTTCGATTTAATAAAAAAGG
DNA 2: CCTTTTTTATTAAATCGAAAACATTACGATTTATTATACATACAT
With B1, the results for the equilibrium dissociation constant (Kd) in the data set with Zur WT (BsZur), in the data set with Zur C84S and with Zur H124A were 15.6 ± 3.5 nM, 75.5 ± 5.3 nM and 96 ± 1.3 nM, respectively.

B2: PrpmEB (dsDNA)
DNA 1: GTAAGGTTATAAAATAAAACGTAATTATTACGATTTATTGAAAGG
DNA 2: CCTTTCAATAAATCGTAATAATTACGTTTTATTTTATAACCTTAC
In the case of B2, the Kd with Zur WT (BsZur) amounted to 14.3 ± 2.6 nM; in the data set with Zur C84S it was 77.9 ± 4 nM; in the data set with Zur H124A, 101 ± 2.3 nM.

B3: PyciC (dsDNA)
DNA 1: ACCATACAATTTAAGTCGTAACAATTACGTTTTATGATAAATGGC
DNA 2: GCCATTTATCATAAAACGTAATTGTTACGACTTAAATTGTATGGT
On to B3, for which the Kd in the data set with Zur WT (BsZur) was found to be 25.4 ± 1.1 nM; with Zur C84S it was 80.6 ± 3.2 nM; with Zur H124A, 129 ± 3.8 nM.

B4: PrpsNB (dsDNA)
DNA 1: GAATGATACATTTTAAATCGTAACAATTTCGATTTAAAGGGAGGC
DNA 2: GCCTCCCTTTAAATCGAAATTGTTACGATTTAAAATGTATCATTC
On to B4, for which the Kd with Zur WT (BsZur) turned out to be 14.3 ± 2.5 nM; in the data set with Zur C84S, 16.5 ± 2.5 nM; with Zur H124A, 99 ± 1.6 nM.

B5: PfolEB (dsDNA)
DNA 1: ACCGATCAAAATAAATAGTAATTATTACGATTTGTTAGTGAGAGG
DNA 2: CCTCTCACTAACAAATCGTAATAATTACTATTTATTTTGATCGGT
For the molecule B5, the figures for the Kd with Zur WT (BsZur), in the data set with Zur C84S and in the data set with Zur H124A were 21.9 ± 3.9 nM, 28.6 ± 2.5 nM and 100 ± 4 nM, respectively.

B6: PznuA (dsDNA)
DNA 1: ATTTATTCTTGCAAAACGTAATGACTTCGGTTTATTATGATATAG
DNA 2: CTATATCATAATAAACCGAAGTCATTACGTTTTGCAAGAATAAAT
With B6, the dissociation constant (Kd) with Zur WT (BsZur) amounted to 12.5 ± 4 nM; in the data set with Zur C84S, 73 ± 2 nM; in the data set with Zur H124A it was 110 ± 3 nM.

As a reminder, the Kd is the equilibrium constant for the complex coming apart.
